Experiments:
[1] = system: human UM-UC-1 bladder cancer cell line; experiment: Conditional survival study (tumor growth delay) in UM-UC-1 bladder cancer xenograft mice; type: in vivo; details: administered as single agent
Procedure: Efficacy was assessed using tumor growth delay in a conditional survival study.

[2] = Phase 1b/2 study of B-701 and docetaxel in advanced UCC, Cohort 1: safety; details: Cohort 1, n=19, B-701 given with docetaxel
Procedure: Docetaxel was administered intravenously over approximately 60 minutes at a dosage of 75 mg/m^2. […] Administration was carried out every 3 weeks (q3w). […] The primary objective was to evaluate progression-free survival (PFS) and safety. Secondary objectives included evaluation of overall response rate (ORR), duration of response (DOR), disease control rate (DCR), and overall survival (OS). Each of these objectives was evaluated for correlations with FGFR3 expression and/or FGFR3 mutations/fusions.

other FGFRs = details: cited from earlier work
[3] = system: cancers expressing both wild-type and genetically activated forms of FGFR3; details: Du 2011; cited from earlier work
[4] = resolved after docetaxel was discontinued

## Nc1ccn([C@@H]2O[C@H](CO)[C@@H](O)C2(F)F)c(=O)n1 [gemcitabine]
[1]
  survival of tumor bearing UM-UC-1 xenograft mice: significantly extended survival

## CC(=O)O[C@H]1C(=O)[C@@]2(C)[C@H]([C@H](OC(=O)c3ccccc3)[C@]3(O)C[C@H](OC(=O)[C@H](O)[C@@H](NC(=O)c4ccccc4)c4ccccc4)C(C)=C1C3(C)C)[C@]1(OC(C)=O)CO[C@@H]1C[C@@H]2O [paclitaxel]
[1]
  survival of tumor bearing UM-UC-1 xenograft mice: significantly extended survival

## B-701: human FGFR3 antagonistic monoclonal antibody MFGR1877S (CAS No. 1312305-12-6), human IgG1 backbone; heavy chain SEQ ID NO:9, light chain SEQ ID NO:10
[1]
  survival of tumor bearing UM-UC-1 xenograft mice: significantly extended survival
[2]
  Grade 3 or higher AE related to B-701: Colitis, # of subjects: 1 subjects
  Grade 3 or higher AE related to B-701: Colitis, % of subjects: (5%)
  Grade 3 or higher AE related to B-701: DIC, # of subjects: 1 subjects
  Grade 3 or higher AE related to B-701: DIC, % of subjects: (5%)
  Grade 3 or higher AE related to B-701: Decreased WBCs, # of subjects: 2 subjects
  Grade 3 or higher AE related to B-701: Decreased WBCs, % of subjects: (11%)
  Grade 3 or higher AE related to B-701: Decreased lymphocytes, # of subjects: 1 subjects
  Grade 3 or higher AE related to B-701: Decreased lymphocytes, % of subjects: (5%)
  Grade 3 or higher AE related to B-701: Decreased neutrophil count, # of subjects: 4 subjects
  Grade 3 or higher AE related to B-701: Decreased neutrophil count, % of subjects: (21%)
  Grade 3 or higher AE related to B-701: Diarrhea, # of subjects: 1 subjects
  Grade 3 or higher AE related to B-701: Diarrhea, % of subjects: (5%)
  Grade 3 or higher AE related to B-701: Fatigue, # of subjects: 1 subjects
  Grade 3 or higher AE related to B-701: Fatigue, % of subjects: (5%)
  Grade 3 or higher AE related to B-701: Hyponatremia, # of subjects: 1 subjects
  Grade 3 or higher AE related to B-701: Hyponatremia, % of subjects: (5%)
  Grade 3 or higher AE related to B-701: Thrombocytopenia, # of subjects: 1 subjects
  Grade 3 or higher AE related to B-701: Thrombocytopenia, % of subjects: (5%)
[2]; [4]
  Grade 3 or higher AE related to B-701: ALT elevation, # of subjects: 1 subjects
  Grade 3 or higher AE related to B-701: ALT elevation, % of subjects: (5%)
  Grade 3 or higher AE related to B-701: AST elevation, # of subjects: 1 subjects
  Grade 3 or higher AE related to B-701: AST elevation, % of subjects: (5%)
Other FGFRs
  cross-reactivity with other FGFRs: no cross-reactivity
[3]
  efficacy: efficacious

Source: US20200308286A1, “METHODS, COMPOSITIONS, AND KITS FOR TREATMENT OF CANCER” (Fusion Pharmaceuticals, Inc., priority 2017, published 2020)
